Read-outs that look alike come from different tables or passages of the source. One block for each binder: values may come before it.
Assays:
[1] = target: T1, GDF-11 (UniProt O95390 299-407); test: cell-based or functional assay
T1 sequence (looked up): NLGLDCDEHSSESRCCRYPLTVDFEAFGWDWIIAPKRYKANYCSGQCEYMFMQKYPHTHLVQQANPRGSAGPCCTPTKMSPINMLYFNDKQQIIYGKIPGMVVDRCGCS

[2] = target: T2, Activin A (UniProt P08476 311-426); test: cell-based or functional assay
T2 sequence (looked up): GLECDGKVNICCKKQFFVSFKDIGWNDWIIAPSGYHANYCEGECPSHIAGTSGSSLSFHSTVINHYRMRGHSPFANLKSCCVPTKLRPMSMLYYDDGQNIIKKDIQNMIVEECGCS

[3] = target: T1, GDF-11; test: cell-based or functional assay; remark: listed apart in the source
[4] = target: T2, Activin A; test: cell-based or functional assay; remark: listed apart in the source
[5] = target: T3, GDF8 (UniProt O14793 267-375); test: BiaCore SPR; ActRIIB-Fc captured by anti-hFc antibody, ligand injected
T3 construct: also called myostatin; Growth and Differentiation Factor-8
T3 sequence (looked up): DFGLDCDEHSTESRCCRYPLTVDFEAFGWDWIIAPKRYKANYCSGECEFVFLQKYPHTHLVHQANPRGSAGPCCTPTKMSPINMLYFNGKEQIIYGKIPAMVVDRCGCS
Description: The ActRIIB-Fc variants or wild-type protein were captured onto the system using an anti-hFc antibody. Ligands were injected and flowed over the captured receptor proteins.

IC50 (ng/mL), A-204 reporter gene assay, conditioned media [3]: 60 ng/mL
IC50 (ng/mL), A-204 reporter gene assay, conditioned media [4]: 43 ng/mL
B2: ActRIIb-hFc (R64, 23-131) (Fc fusion)
chain: EAETRECIYYNANWELERTNQSGLERCEGEQDKRLHCYASWRNSSGTIELVKKGCWLDDFNCYDRQECVATEENPQVYFCCCEGNFCNERFTHLPEAGGPEVTYEPPPTGGGTHTCPPCPAPELLGGPSVFLFPPKPKDTLMISRTPEVTCVVVDVSHEDPEVKFNWYVDGVEVHNAKTKPREEQYNSTYRVVSVLTVLHQDWLNGKEYKCKVSNKALPVPIEKTISKAKGQPREPQVYTLPPSREEMTKNQVSLTCLVKGFYPSDIAVEWESNGQPENNYKTTPPVLDSDGSFFLYSKLTVDKSRWQQGNVFSCSVMHEALHNHYTQKSLSLSPGK

IC50 (ng/mL), A-204 reporter gene assay, conditioned media [3]: 69 ng/mL
IC50 (ng/mL), A-204 reporter gene assay, conditioned media [4]: 105 ng/mL
B3: ActRIIb-hFc (R64, 24-131) (Fc fusion)
chain: AETRECIYYNANWELERTNQSGLERCEGEQDKRLHCYASWRNSSGTIELVKKGCWLDDFNCYDRQECVATEENPQVYFCCCEGNFCNERFTHLPEAGGPEVTYEPPPTGGGTHTCPPCPAPELLGGPSVFLFPPKPKDTLMISRTPEVTCVVVDVSHEDPEVKFNWYVDGVEVHNAKTKPREEQYNSTYRVVSVLTVLHQDWLNGKEYKCKVSNKALPVPIEKTISKAKGQPREPQVYTLPPSREEMTKNQVSLTCLVKGFYPSDIAVEWESNGQPENNYKTTPPVLDSDGSFFLYSKLTVDKSRWQQGNVFSCSVMHEALHNHYTQKSLSLSPGK

IC50 (ng/mL), A-204 reporter gene assay, conditioned media [3]: 71 ng/mL
IC50 (ng/mL), A-204 reporter gene assay, conditioned media [4]: 100 ng/mL
B6: ActRIIb-hFc (R64, 22-131) (Fc fusion)
chain: GEAETRECIYYNANWELERTNQSGLERCEGEQDKRLHCYASWRNSSGTIELVKKGCWLDDFNCYDRQECVATEENPQVYFCCCEGNFCNERFTHLPEAGGPEVTYEPPPTGGGTHTCPPCPAPELLGGPSVFLFPPKPKDTLMISRTPEVTCVVVDVSHEDPEVKFNWYVDGVEVHNAKTKPREEQYNSTYRVVSVLTVLHQDWLNGKEYKCKVSNKALPVPIEKTISKAKGQPREPQVYTLPPSREEMTKNQVSLTCLVKGFYPSDIAVEWESNGQPENNYKTTPPVLDSDGSFFLYSKLTVDKSRWQQGNVFSCSVMHEALHNHYTQKSLSLSPGK

The next lines start with the binder.

B1: ActRIIb-hFc (R64, 20-132) (Fc fusion)
chain: GRGEAETRECIYYNANWELERTNQSGLERCEGEQDKRLHCYASWRNSSGTIELVKKGCWLDDFNCYDRQECVATEENPQVYFCCCEGNFCNERFTHLPEAGGPEVTYEPPPTAGGGTHTCPPCPAPELLGGPSVFLFPPKPKDTLMISRTPEVTCVVVDVSHEDPEVKFNWYVDGVEVHNAKTKPREEQYNSTYRVVSVLTVLHQDWLNGKEYKCKVSNKALPVPIEKTISKAKGQPREPQVYTLPPSREEMTKNQVSLTCLVKGFYPSDIAVEWESNGQPENNYKTTPPVLDSDGSFFLYSKLTVDKSRWQQGNVFSCSVMHEALHNHYTQKSLSLSPGK
IC50 (ng/mL), A-204 reporter gene assay, conditioned media [1]: 87 ng/mL
IC50 (ng/mL), A-204 reporter gene assay, conditioned media [2]: 32 ng/mL

B4: ActRIIb-hFc (R64, 21-131) (Fc fusion)
chain: RGEAETRECIYYNANWELERTNQSGLERCEGEQDKRLHCYASWRNSSGTIELVKKGCWLDDFNCYDRQECVATEENPQVYFCCCEGNFCNERFTHLPEAGGPEVTYEPPPTGGGTHTCPPCPAPELLGGPSVFLFPPKPKDTLMISRTPEVTCVVVDVSHEDPEVKFNWYVDGVEVHNAKTKPREEQYNSTYRVVSVLTVLHQDWLNGKEYKCKVSNKALPVPIEKTISKAKGQPREPQVYTLPPSREEMTKNQVSLTCLVKGFYPSDIAVEWESNGQPENNYKTTPPVLDSDGSFFLYSKLTVDKSRWQQGNVFSCSVMHEALHNHYTQKSLSLSPGK
IC50 (ng/mL), A-204 reporter gene assay, conditioned media [3]: 121 ng/mL
IC50 (ng/mL), A-204 reporter gene assay, conditioned media [4]: 325 ng/mL

B5: ActRIIb-hFc (R64, 20-134) (Fc fusion)
chain: GRGEAETRECIYYNANWELERTNQSGLERCEGEQDKRLHCYASWRNSSGTIELVKKGCWLDDFNCYDRQECVATEENPQVYFCCCEGNFCNERFTHLPEAGGPEVTYEPPPTAPTGGGTHTCPPCPAPELLGGPSVFLFPPKPKDTLMISRTPEVTCVVVDVSHEDPEVKFNWYVDGVEVHNAKTKPREEQYNSTYRVVSVLTVLHQDWLNGKEYKCKVSNKALPVPIEKTISKAKGQPREPQVYTLPPSREEMTKNQVSLTCLVKGFYPSDIAVEWESNGQPENNYKTTPPVLDSDGSFFLYSKLTVDKSRWQQGNVFSCSVMHEALHNHYTQKSLSLSPGK
kon [5]: 369000 M⁻¹ s⁻¹

B7: ActRIIb-hFc (R64, 20-128) (Fc fusion)
chain: GRGEAETRECIYYNANWELERTNQSGLERCEGEQDKRLHCYASWRNSSGTIELVKKGCWLDDFNCYDRQECVATEENPQVYFCCCEGNFCNERFTHLPEAGGPEVTYEPGGGTHTCPPCPAPELLGGPSVFLFPPKPKDTLMISRTPEVTCVVVDVSHEDPEVKFNWYVDGVEVHNAKTKPREEQYNSTYRVVSVLTVLHQDWLNGKEYKCKVSNKALPVPIEKTISKAKGQPREPQVYTLPPSREEMTKNQVSLTCLVKGFYPSDIAVEWESNGQPENNYKTTPPVLDSDGSFFLYSKLTVDKSRWQQGNVFSCSVMHEALHNHYTQKSLSLSPGK
IC50 (ng/mL), A-204 reporter gene assay, conditioned media [1]: 130 ng/mL
IC50 (ng/mL), A-204 reporter gene assay, conditioned media [2]: 158 ng/mL

B8: ActRIIb-hFc (R64, 20-131) (Fc fusion)
chain: GRGEAETRECIYYNANWELERTNQSGLERCEGEQDKRLHCYASWRNSSGTIELVKKGCWLDDFNCYDRQECVATEENPQVYFCCCEGNFCNERFTHLPEAGGPEVTYEPPPTGGGTHTCPPCPAPELLGGPSVFLFPPKPKDTLMISRTPEVTCVVVDVSHEDPEVKFNWYVDGVEVHNAKTKPREEQYNSTYRVVSVLTVLHQDWLNGKEYKCKVSNKALPVPIEKTISKAKGQPREPQVYTLPPSREEMTKNQVSLTCLVKGFYPSDIAVEWESNGQPENNYKTTPPVLDSDGSFFLYSKLTVDKSRWQQGNVFSCSVMHEALHNHYTQKSLSLSPGK
IC50 (ng/mL), A-204 reporter gene assay, conditioned media [1]: 120 ng/mL
IC50 (ng/mL), A-204 reporter gene assay, conditioned media [2]: 44 ng/mL
IC50 (ng/mL), A-204 reporter gene assay, conditioned media [3]: 183 ng/mL
IC50 (ng/mL), A-204 reporter gene assay, conditioned media [4]: 201 ng/mL
